Data published in the RNAGym collection of RNA variant scans (doi:10.1073/pnas.2313332121).

B1: TPR t1 (parent)
chain: GACCAAUCUGCCCUCAGAGCUCGAGAACAUCUUCGGAUGCAGAGGAGGCAGGCUUCGGUGGCGCGAUAGCGCCAACGUCCUCAACCUCCAAUGCAUCCCACCACAUGAUGAUGCCUGAAGAGCCUUGGUUUUUUG

Variants of: B1
Test: polymerase ribozyme fitness, log enrichment relative to wild type (log ratio); higher = more active; in vitro selection for triplet polymerase activity
Procedure, shortened: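 Input and output libraries were sequenced on Illumina after a single in vitro selection round, run in triplicate on PCR-built, transcribed mutant libraries of each subunit of a heterodimeric triplet polymerase ribozyme. Selection annealed libraries to a biotinylated primer, the partner subunit and triplets, incubated them frozen at −7 °C, then gel-excised extended constructs for streptavidin-bead capture and RT-PCR. Genotypes with ≥10 input reads and ≥1 read per output were kept. Fitness is the logarithm, taken in base 2, of genotype enrichment divided by wild-type enrichment, using inverse-variance-weighted replicate averages.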

Row | Variant | polymerase ribozyme fitness (log ratio)
1 | G10C C11G A103U | -3.76
2 | G39U G69U C73A C124U | 0.671
3 | G44A C79A | -3.11
4 | C3A C13U C62U G113U | -4.41
5 | G77C G117U | -2.55
6 | A27G C28U C56U U81A A83U A121C | -3.5
7 | A27U C56U | -3.04
8 | A24G A29U G44U C80A | -6.46
9 | G63A U81C A90U | -4.66
10 | C28A G61U G120A | -3.5
11 | G42A G61C C114U G117C | -5.25
12 | A6G G10U C56U C94U G135U | -1.99
13 | C4A C15G | -4.24
14 | G17A G71U | -3.07
15 | C12U C49U C97U | -1.6
16 | C85G C94U C97U G120C | -0.74
17 | C49U C62U A118U | -0.00141
18 | G63U C70A G127C | -0.596
19 | C64U U116G G117C | -2.86
20 | C20A A46U G52A | -3.85
21 | G63C C72U G107A C124U | -6.17
22 | U9C G10A A37U | -0.108
23 | G61A C82U C115A | 0.0919
24 | G17C C72U C88A | -4.4

Row | Variant | polymerase ribozyme fitness (log ratio)
25 | C15A G120U | -1.44
26 | A6C C11A | -2.65
27 | A95U A103G | -6.8
28 | G42A C72A C104A U130C | -5.17
29 | C13A A16U G60U C88U A121G | 1.33
30 | C62G U106C | -2.05
31 | G52C C82A U112G | -1.29
32 | C40A A50U A95C | -3.28
33 | C49A G57U G60U G113A | -1.65
34 | C72G G122A | -1
35 | U9G C70A C76U | -3.45
36 | C12A G120A U126G | 0.354
37 | U9C U92A C114A | -1.69
38 | G69A C123U | -0.983
39 | U67A G69U | -5.08
40 | G45A C49A | -0.473
41 | C12U G39A C56A | -0.34
42 | C11G A43G U59A | -1.75
43 | A16U A41G G63U C115U | -4.47
44 | G45A A46U | -1.72
45 | C76A C89A | -3.18
46 | C3A C102A U106C G120U C124U | -2.57
47 | C22U G39A C64U C99U U130C | -6.29
48 | C56U G117U | -1.63

Row | Variant | polymerase ribozyme fitness (log ratio)
49 | C101G U133G | -2.02
50 | C8G G107U C123G | -2.76
51 | A2U C76A | -3.43
52 | U33A C104U U112A | -3.5
53 | U33G C124G | -4.16
54 | C11U C124A | 1.7
55 | C56A U87A U106A | -0.176
56 | A46G G47U A119G | -0.516
57 | G36A U59A C89G | -3.6
58 | U55C A90U | -1.58
59 | C20U G39A G110U G128A | -5.92
60 | C8G C79G C80A | -5.06
61 | C31G C123U | -7.18
62 | G48U C104U | -0.515
63 | G71A A83G U133G | -2.31
64 | A16G G47C C56U A74U A121G G128C | -3.74
65 | C13G G36U G60A G110U | -4.24
66 | A2U C4A U33G C49G G58C A121C | -5.98
67 | C99U U132C | -3.53
68 | G51C C62U U112C | -2.27
69 | A26G A46C G52C | -4.5
70 | C104A U112A | 0.162
71 | G48A C56U C70A G93A | -5.28
72 | A29U G51C G120U | -3.96

Row | Variant | polymerase ribozyme fitness (log ratio)
73 | A37U G69A | -3.01
74 | G63C C88U | -1.29
75 | A2G C13U A91C G122A | -0.77
76 | U33G C94A G113C G117A | -6.01
77 | A43U C56A C115U | -2.52
78 | C8G C12A G39A G61U A111U U130A | -2.24
79 | G47U C53A U106C | -0.879
80 | U14A U21G | -1.66
81 | G58C A111C U112C | -0.0453
82 | C12G C49A G63U C72U C89A | -3.61
83 | G10C C13G G61A U106G A118U | -2.68
84 | G69U G128A | -1.19
85 | G17U A46U C53G G63C A83C C85G C89U A121C C123U U126A | -6.58
86 | A2G C114A U126C | -4.32
87 | U33A C72G | -5.17
88 | C53U U96C | -0.173
89 | C79U C114A | -0.742
90 | A24U C56U | -4.09
91 | C70A U126A | -2.53
92 | C12A C28U G63C | -2.37
93 | C11G C34U C86G A119U | -5.27
94 | C12G A29U A46U C124A | -1.77
95 | A105U U126A U129A U130G | -6
96 | G48C U87A | -1.01

Row | Variant | polymerase ribozyme fitness (log ratio)
97 | C40G A46C G48U C73G C124G | -5.04
98 | C11A C12A G71A C89G A90G C101U U133G | -4.22
99 | A6U G17U C40U C76G | -3.15
100 | U81A G127U | -2.76
101 | A2G C82A A111U | -4.1
102 | U9A C34A C72A C102U C123A G128U | -1.61
103 | C56G U87A C115U | -1.94
104 | C8G G44A G63U U125G | -2.03
105 | C70U A90C U92C C102A G120C U132A | -5.71
106 | A6U C102A G128A | -4.03
107 | C13U A91U | -0.839
108 | A43G G61A G65U | -5.48
109 | C34A C82A U112A | -2.63
110 | C34U U87A | -4.77
111 | C4A G69A | -4.36
112 | C22G G52C C79U | -4.14
113 | C12A C20A G61U G120A | -1.21
114 | A41C G42U C104U C114A | -3.04
115 | C8A C28G U96A | -3.08
116 | A18G U54A G77A U109G | -3.13
117 | U54A C86U C124U | 1.14
118 | A26U G52A U112A U131C | -2.99
119 | C20A G51C C56A C79U U106A A121U | -7.26
120 | A26G G45A | -2.64

Row | Variant | polymerase ribozyme fitness (log ratio)
121 | C13A A43C C101A A111C | -6.5
122 | C64U A103G | -4.77
123 | U9G A27U U133G | -2.53
124 | A16G G60U A90U | -2.82
125 | A5U G19A C40A A111G | -2.76
126 | G42A C101U | -1.9
127 | C13G C56A G63A | -3.78
128 | A29G C49U A119U G120A C123A | -2.51
129 | C49A C70G U130C | -3.2
130 | G45U G61A C62U C79A | -2.55
131 | U7G A46U | -1.38
132 | G36A C97U | -0.157
133 | G77A A91G | -1.01
134 | C97U G113A | -1.5
135 | U87G G120A | 0.0419
136 | C56U G110U C114U U125A | -3.23
137 | C34G A74U A90C U112G | -6.64
138 | G23U G60U G65C C99G C123U | -7.81
139 | C15U A18U G44U G69U G117C A121C | -4.92
140 | C40U G122A U130A | -1.96
141 | C49A U116G | -2.39
142 | A6C A37C A111U | -3.49
143 | G58A G69A | -2.24
144 | A37C A91G | -2.03

Row | Variant | polymerase ribozyme fitness (log ratio)
145 | A68U G117C | -6.92
146 | A6G U7G A18C G52U U81A C115G | -4.51
147 | G52U G60A C104U C115G A121C | -4.03
148 | U14A C101U | -3.07
149 | G57U A75G A83C G117A | -2
150 | G45A C102U G120C | -1.47
151 | C12U A18C G71U U131C | -1.9
152 | C11U C13A C88U | -2.38
153 | G57U C94G | -1.04
154 | G44C G47C G63C C89U U132A | -4.25
155 | C40U A43U C49A U55C G61C A84C G110C U131C | -6.76
156 | C3G A46U C72A G113C | -3.77
157 | C3A A46U A50U G57A | -4.95
158 | C72U U78A | -1.19
159 | G61A G107U | -4.9
160 | C12A C70A C85G U116C | -4.83
161 | C72U U129A | -1.42
162 | C98U U116A A119G | -0.385
163 | G39A C72A A91U C94A | -2.84
164 | G35A C73U U78G A90G C115G A121C | -5.51
165 | C70U U96G | -1.09
166 | A29G C101A A118U | -3.6
167 | U14C A16U C88U C101A U129G | -5.73
